Publication PMC2635920 (Nature structural & molecular biology, 2009)

T1: Dsl1p, full-length (residues 1-754) (S. cerevisiae, UniProt P53847 1-754)
T1 sequence (looked up): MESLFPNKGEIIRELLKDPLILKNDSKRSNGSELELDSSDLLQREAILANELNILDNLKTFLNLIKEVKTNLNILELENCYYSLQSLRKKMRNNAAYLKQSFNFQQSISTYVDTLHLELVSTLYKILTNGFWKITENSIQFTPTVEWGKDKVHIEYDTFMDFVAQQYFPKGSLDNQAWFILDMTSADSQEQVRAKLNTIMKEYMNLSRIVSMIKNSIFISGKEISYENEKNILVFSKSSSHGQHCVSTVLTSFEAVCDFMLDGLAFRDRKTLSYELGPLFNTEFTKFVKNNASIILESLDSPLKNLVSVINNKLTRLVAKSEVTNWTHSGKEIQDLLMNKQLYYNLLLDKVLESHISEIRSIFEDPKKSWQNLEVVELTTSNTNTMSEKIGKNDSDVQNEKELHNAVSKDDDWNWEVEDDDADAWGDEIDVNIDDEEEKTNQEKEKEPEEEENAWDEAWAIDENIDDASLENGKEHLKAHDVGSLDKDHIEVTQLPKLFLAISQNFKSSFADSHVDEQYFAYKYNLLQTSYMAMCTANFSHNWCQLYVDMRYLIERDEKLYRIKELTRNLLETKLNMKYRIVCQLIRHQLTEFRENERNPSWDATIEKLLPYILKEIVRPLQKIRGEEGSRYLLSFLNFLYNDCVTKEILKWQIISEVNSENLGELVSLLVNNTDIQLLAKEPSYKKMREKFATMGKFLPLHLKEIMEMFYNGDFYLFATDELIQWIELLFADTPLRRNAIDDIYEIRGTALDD

T2: Dsl1p-Sec39p complex (S. cerevisiae, UniProt P53847 1-754; Q12745 1-709)
T2 sequence (looked up) 1: T1 sequence (looked up)
T2 sequence (looked up) 2: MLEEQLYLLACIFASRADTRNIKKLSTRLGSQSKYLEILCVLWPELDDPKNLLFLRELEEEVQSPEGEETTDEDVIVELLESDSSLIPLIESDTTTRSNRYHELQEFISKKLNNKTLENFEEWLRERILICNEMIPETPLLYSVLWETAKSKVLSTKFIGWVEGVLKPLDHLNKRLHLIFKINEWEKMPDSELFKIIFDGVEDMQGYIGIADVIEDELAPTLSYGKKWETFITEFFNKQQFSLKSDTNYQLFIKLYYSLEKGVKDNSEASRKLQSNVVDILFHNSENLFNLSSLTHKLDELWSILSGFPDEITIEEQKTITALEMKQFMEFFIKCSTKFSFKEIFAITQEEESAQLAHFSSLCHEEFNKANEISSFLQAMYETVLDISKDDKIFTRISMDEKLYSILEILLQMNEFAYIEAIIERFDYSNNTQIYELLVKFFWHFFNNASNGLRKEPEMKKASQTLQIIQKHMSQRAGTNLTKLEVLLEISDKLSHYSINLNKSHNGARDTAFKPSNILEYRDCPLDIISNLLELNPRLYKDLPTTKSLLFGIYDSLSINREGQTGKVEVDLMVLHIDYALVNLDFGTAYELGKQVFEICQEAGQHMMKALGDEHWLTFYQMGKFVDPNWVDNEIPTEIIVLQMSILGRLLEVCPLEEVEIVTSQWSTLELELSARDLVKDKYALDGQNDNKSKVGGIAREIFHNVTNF

T3: Dsl1p residues 37-339, as the C-terminal part of the Tip20p-Dsl1p fusion protein (S. cerevisiae, UniProt P53847 37-339)
T3 sequence (looked up): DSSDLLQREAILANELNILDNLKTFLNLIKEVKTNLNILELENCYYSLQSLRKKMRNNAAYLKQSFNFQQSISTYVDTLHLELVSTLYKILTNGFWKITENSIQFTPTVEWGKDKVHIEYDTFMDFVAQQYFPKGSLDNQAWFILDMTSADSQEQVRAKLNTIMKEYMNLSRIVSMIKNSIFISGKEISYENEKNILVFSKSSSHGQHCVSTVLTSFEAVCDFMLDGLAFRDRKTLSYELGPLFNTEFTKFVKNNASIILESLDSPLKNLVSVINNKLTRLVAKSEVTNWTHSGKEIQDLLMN

T4: Sec39p, full-length (residues 1-709) (S. cerevisiae, UniProt Q12745 1-709)
T4 sequence (looked up): T2 sequence (looked up) 2

B1: Tip20p, full-length (residues 1-701) (natural protein, S. cerevisiae, UniProt P33891 1-701, looked up)
chain: MNGIDDLLNINDRIKQVQNERNELASKLQNLKQSLASNDTEVALSEVIAQDIIEVGASVEGLEQLRAKYGDLQILNKLEKVAVQQTQMQAGVDKLDSFERQLDELAEQPPDQFTLDDVKALHSKLTSVFATVPQINNIDSQYAAYNKLKSKVTGKYNDVIIQRLATNWSNTFDQKLLEAQWDTQKFASTSVGLVKCLRENSTKLYQLSLLYLPLEEETQNGDSERPLSRSNNNQEPVLWNFKSLANNFNVRFTYHFHATSSSSKIETYFQFLNDYLAENLYKCINIFHDDCNGLTKPVIHEQFINYVLQPIRDKVRSTLFQNDLKTLIVLISQILATDKNLLNSFHYHGLGLVSLISDEVWEKWINYEVEMANRQFINITKNPEDFPKSSQNFVKLINKIYDYLEPFYDLDFDLLVRYKLMTCSLIFMNLTSSYLDYILTVDSLNETRTKEQELYQTMAKLQHVNFVYRKIKSLSSNFIFIQLTDIVNSTESKKYNSLFQNVENDYEKAMSTDMQNSIVHRIQKLLKETLRNYFKISTWSTLEMSVDENIGPSSVPSAELVNSINVLRRLINKLDSMDIPLAISLKVKNELLNVIVNYFTESILKLNKFNQNGLNQFLHDFKSLSSILSLPSHATNYKCMSLHELVKILKLKYDPNNQQFLNPEYIKTGNFTSLKEAYSIKYLKDTKIQDALYRIIYGNIL
B2: Dsl1ΔC (L41E) (domain or fragment, S. cerevisiae, UniProt P53847 1-361, looked up)
chain: MESLFPNKGEIIRELLKDPLILKNDSKRSNGSELELDSSDELQREAILANELNILDNLKTFLNLIKEVKTNLNILELENCYYSLQSLRKKMRNNAAYLKQSFNFQQSISTYVDTLHLELVSTLYKILTNGFWKITENSIQFTPTVEWGKDKVHIEYDTFMDFVAQQYFPKGSLDNQAWFILDMTSADSQEQVRAKLNTIMKEYMNLSRIVSMIKNSIFISGKEISYENEKNILVFSKSSSHGQHCVSTVLTSFEAVCDFMLDGLAFRDRKTLSYELGPLFNTEFTKFVKNNASIILESLDSPLKNLVSVINNKLTRLVAKSEVTNWTHSGKEIQDLLMNKQLYYNLLLDKVLESHISEIRS
B3: Dsl1ΔN1 (Dsl1p residues 340-754) (domain or fragment, S. cerevisiae, UniProt P53847 340-754, looked up)
chain: KQLYYNLLLDKVLESHISEIRSIFEDPKKSWQNLEVVELTTSNTNTMSEKIGKNDSDVQNEKELHNAVSKDDDWNWEVEDDDADAWGDEIDVNIDDEEEKTNQEKEKEPEEEENAWDEAWAIDENIDDASLENGKEHLKAHDVGSLDKDHIEVTQLPKLFLAISQNFKSSFADSHVDEQYFAYKYNLLQTSYMAMCTANFSHNWCQLYVDMRYLIERDEKLYRIKELTRNLLETKLNMKYRIVCQLIRHQLTEFRENERNPSWDATIEKLLPYILKEIVRPLQKIRGEEGSRYLLSFLNFLYNDCVTKEILKWQIISEVNSENLGELVSLLVNNTDIQLLAKEPSYKKMREKFATMGKFLPLHLKEIMEMFYNGDFYLFATDELIQWIELLFADTPLRRNAIDDIYEIRGTALDD
B4: Dsl1ΔN (Dsl1p residues 57-754) (domain or fragment, S. cerevisiae, UniProt P53847 57-754, looked up)
chain: NLKTFLNLIKEVKTNLNILELENCYYSLQSLRKKMRNNAAYLKQSFNFQQSISTYVDTLHLELVSTLYKILTNGFWKITENSIQFTPTVEWGKDKVHIEYDTFMDFVAQQYFPKGSLDNQAWFILDMTSADSQEQVRAKLNTIMKEYMNLSRIVSMIKNSIFISGKEISYENEKNILVFSKSSSHGQHCVSTVLTSFEAVCDFMLDGLAFRDRKTLSYELGPLFNTEFTKFVKNNASIILESLDSPLKNLVSVINNKLTRLVAKSEVTNWTHSGKEIQDLLMNKQLYYNLLLDKVLESHISEIRSIFEDPKKSWQNLEVVELTTSNTNTMSEKIGKNDSDVQNEKELHNAVSKDDDWNWEVEDDDADAWGDEIDVNIDDEEEKTNQEKEKEPEEEENAWDEAWAIDENIDDASLENGKEHLKAHDVGSLDKDHIEVTQLPKLFLAISQNFKSSFADSHVDEQYFAYKYNLLQTSYMAMCTANFSHNWCQLYVDMRYLIERDEKLYRIKELTRNLLETKLNMKYRIVCQLIRHQLTEFRENERNPSWDATIEKLLPYILKEIVRPLQKIRGEEGSRYLLSFLNFLYNDCVTKEILKWQIISEVNSENLGELVSLLVNNTDIQLLAKEPSYKKMREKFATMGKFLPLHLKEIMEMFYNGDFYLFATDELIQWIELLFADTPLRRNAIDDIYEIRGTALDD

Assays:
[1] = target: T1, Dsl1p, full-length (residues 1-754); experiment: SEC
Dsl1p-Sec39p complex = target: T2, Dsl1p-Sec39p complex; experiment: SEC
[2] = target: T3, Dsl1p residues 37-339, as the …; experiment: crystal structure
[3] = target: B1; experiment: SEC
[4] = target: T4, Sec39p, full-length (residues 1-709); experiment: SEC

**Q.** Which results are given for B1?
**A.** binding result [1]: binds; binding result (Dsl1p-Sec39p complex): binds

**Q.** Does MNGIDDLLNINDRIKQVQNERNELASKLQNLKQSLASNDT (domain or fragment, S. cerevisiae, UniProt P33891 1-40, looked up) [Tip20p residues 1-40, as the N-terminal part of the Tip20p-Dsl1p fusion protein] bind [2]?
**A.** binds

**Q.** Does B2 bind [3]?
**A.** binds

**Q.** Does B3 bind [4]?
**A.** binds

**Q.** Does B4 bind [4]?
**A.** binds
